Source: patent US20050048548A1

Key:
streptavidin (Prozyme) [1] = molecular target: streptavidin (Prozyme) (UniProt P22629); assay: phage ELISA on plate-coated streptavidin, anti-M13-HRP detection
[2] = molecular target: MBP-BirA fusion (E. coli biotin ligase / biotin holoenzyme synthetase with N-terminal maltose binding protein) (E. coli) [MBP: P0AEX9]; assay: phage ELISA on plate-coated MBP-BirA, anti-M13-HRP detection; reference: same phage unmodified
streptavidin (Prozyme) [3] = molecular target: streptavidin (Prozyme) (UniProt P22629); assay: phage ELISA on plate-coated streptavidin, both with and without 10 mM DTT; reference: Ser-Ser phage

Chain of streptavidin (Prozyme) (P22629 37-163 limits assumed): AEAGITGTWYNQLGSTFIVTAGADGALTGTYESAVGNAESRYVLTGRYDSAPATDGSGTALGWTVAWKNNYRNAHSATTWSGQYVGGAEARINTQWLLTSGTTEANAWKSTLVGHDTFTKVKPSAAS

Substance | fold increase of affinity, biotin-modified against unmodified phage [2] [fold] | also measured
M13 phage displaying the disulfide constrained sequence Cys-HPQGPP-Cys (peptide) | – | reduction of binding in 10 mM DTT against no DTT (orders of magnitude) (streptavidin (Prozyme) [1]): > 2
biotin-modified M13 phage clone displaying CLQPSecYGS (peptide) | 5 | –
M13 phage displaying the selenosulfide constrained sequence Cys-HPQGPT-Sec (peptide) | – | tighter binding against the linear Ser-Ser sequence (orders of magnitude) (streptavidin (Prozyme) [3]): 2
biotin-modified M13 phage clone displaying VTAKSecCYP (peptide) | 5 | –
biotin-modified M13 phage clone displaying VPKQSecCQN (peptide) | 5 | –
